The values that follow are results of earlier work, collected in PMC12865133, “Macrocyclic Molecular Glues for the 14‐3‐3/ChREBP Interaction: Affinity and Cooperativity in an Inverse Relationship” (Angewandte Chemie (International Ed. in English), 2025).

pKd: −log10 of the molar value.

This data set concerns the target ChREBP (Homo sapiens) (UniProt Q9NP71). The settings on record: cited from earlier work.

Chain of 14-3-3 (P31946 2-246): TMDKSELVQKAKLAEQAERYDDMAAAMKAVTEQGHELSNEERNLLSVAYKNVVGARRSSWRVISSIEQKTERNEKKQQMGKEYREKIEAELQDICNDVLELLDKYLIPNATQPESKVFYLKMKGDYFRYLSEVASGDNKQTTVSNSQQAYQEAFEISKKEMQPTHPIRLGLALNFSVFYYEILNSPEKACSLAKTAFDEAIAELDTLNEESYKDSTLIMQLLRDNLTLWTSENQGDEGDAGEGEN
Chain of ChREBP (Homo sapiens) (Q9NP71 whole entry): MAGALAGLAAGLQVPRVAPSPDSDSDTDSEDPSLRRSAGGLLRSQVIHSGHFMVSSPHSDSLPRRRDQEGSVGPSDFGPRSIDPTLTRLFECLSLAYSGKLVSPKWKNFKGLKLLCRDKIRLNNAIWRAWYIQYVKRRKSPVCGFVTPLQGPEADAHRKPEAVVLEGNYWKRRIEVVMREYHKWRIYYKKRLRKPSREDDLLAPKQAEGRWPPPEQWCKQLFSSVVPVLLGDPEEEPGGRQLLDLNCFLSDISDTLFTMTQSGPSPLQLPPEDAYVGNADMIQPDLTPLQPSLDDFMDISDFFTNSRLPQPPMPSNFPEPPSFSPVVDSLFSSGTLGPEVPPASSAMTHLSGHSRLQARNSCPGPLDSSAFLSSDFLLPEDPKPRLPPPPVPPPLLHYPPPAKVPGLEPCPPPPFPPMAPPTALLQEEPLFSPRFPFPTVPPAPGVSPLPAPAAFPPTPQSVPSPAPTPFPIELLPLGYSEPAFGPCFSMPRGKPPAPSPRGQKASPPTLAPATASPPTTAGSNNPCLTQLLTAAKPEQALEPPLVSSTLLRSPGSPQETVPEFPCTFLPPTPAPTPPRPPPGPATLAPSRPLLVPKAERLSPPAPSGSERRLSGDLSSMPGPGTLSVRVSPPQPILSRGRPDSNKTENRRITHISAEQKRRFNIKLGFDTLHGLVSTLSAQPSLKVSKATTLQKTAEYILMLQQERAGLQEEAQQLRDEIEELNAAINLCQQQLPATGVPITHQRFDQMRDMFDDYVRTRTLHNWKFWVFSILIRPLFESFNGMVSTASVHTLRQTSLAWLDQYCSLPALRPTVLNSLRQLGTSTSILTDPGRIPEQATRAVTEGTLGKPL

As to 14-3-3 (from UniProt P31946), the pKd is 5.82.
